One experiment has as its system T47D cells. Kind of experiment: Crystal violet assay / cell counts of T47D cells treated with cell penetrating peptides. It counts as cell-based, human. Particulars: 5 μM peptide in media, 72 hrs. The protocol:
FIG. 9. […] A) Amino acid sequences of CPP-RRM1-myc, and RRM3-(441-500)-myc (SEQ ID NO: 33) and CPP-RRM3 (441-500)-myc (SEQ ID NO: 32) peptides. The sequence of Penetratin is in grey, myc tag in light grey and RRM3 in black. B) Coomassie staining showing GST-tagged, purified proteins. C, D) Representative light microscopic images of crystal violet stained cells taken after 3 days of treatment with 5 uM CPP-RRM3 (441-500)-myc. E, F) Crystal violet assay of cell numbers during treatment with 5 uM CPP-RRM3 (441-500) myc. G) Quantification of total number of cells before and after 3 days of treatment with CPP RRM3. H, I, J) Representative light microscopic images of crystal violet stained T47D cells taken after 3 days of treatment with peptides listed at top. K, L, M) Crystal violet assay of number T47D cells over 3 days of treatment with peptides listed. N) Quantification of total number of T47D cells before and after 3 days of treatment.
(§1) Crystal violet assay/optical density method of cell quantitation: 5×10^5 cells were plated per well in 6-well tissue culture plates. At times indicated cells were washed with PBS and fixed for 10 minutes in a 10% formalin solution. Cells were then rinsed with distilled water and subsequently stained with 100 μl 0.1% crystal violet solution for 30 min. Stained cells were rinsed with water to remove the excess traces of the staining solution. Cell-associated crystal violet dye was extracted with 500 μl of 10% acetic acid. Aliquots were collected and optical density was measured at 590 nm wavelength. Each point on the curve shown represents 3 independent wells.
(§2) Cell counts for CPP treatments: Cells were plated in 6-well dishes and incubated with 5 μM concentration of peptides. At days noted, cells were trypsinized and counted using a hemocytometer.
Whether recombinant RRM3 conjugated with the Penetratin cell penetrating peptide (Dupont E, et al., Methods Mol Biol. 1324:29-37 (2015)) (FIGS. 9A, B) affects growth of T47D and PME cells was tested. Equal numbers of PME and T47D cells were seeded and incubated with 5 μM peptide in media for 72 hrs. […]

Another experiment relates to PME cells. In words: Crystal violet assay / cell counts of primary mammary epithelial cells (PMEs) treated with cell penetrating peptides. The experiment is classed as cell-based, human. Particulars: PME cells, 5 μM peptide in media, 72 hrs. On the procedure:
as §1, §2
Whether recombinant RRM3 conjugated with the Penetratin cell penetrating peptide (Dupont E, et al., Methods Mol Biol. 1324:29-37 (2015)) (FIGS. 9A, B) affects growth of T47D and PME cells was tested. Equal numbers of PME and T47D cells were seeded and incubated with 5 μM peptide in media for 72 hrs. […] Compared to CPP-coupled RRM3, CPP-RRM1 and RRM3 had no effect (FIGS. 9H-N). […]

B1: RRM3: recombinant RRM3 (441-500)-myc peptide without Penetratin (SEQ ID NO: 33) (protein)
chain: GWDTEIKDDVIEECNKHGGVIHIYVDKNSAQGNVYVKCPSIAAAIAAVNALHGRWFAGKMTAAYVPEQKLISEEDL
modifications: RRM3-derived synthetic sequence
Turning to B1, the “number of breast cancer cells” value in the experiment with T47D cells is listed as “no effect”.

B2: CPP-RRM3: recombinant RRM3 (441-500) conjugated with the Penetratin cell penetrating peptide, myc tag (SEQ ID NO: 32) (protein)
chain: RQIKIWFQNRRMKWKKGWDTEIKDDVIEECNKHGGVIHIYVDKNSAQGNVYVKCPSIAAAIAAVNALHGRWFAGKMTAAYVPEQKLISEEDL
modifications: RRM3-derived synthetic sequence
As to B2, the “number of breast cancer cells” value with T47D cells is on record as “dramatically decreased”; in the experiment with T47D cells (listed as Cell-penetrating CAPERα RRM3), “disrupts breast cancer cell growth”. For the same molecule, in the experiment on PME cells, the “number of PMEs” value was “no effect”.
